A protein production outcome set (Wang et al. 2014)

Test: label from the status in PepcDB records
With “MKDIVIIGTENIGKEVVKIIEAINSKRNTWNVLGFISLKKDEEGSNIEGYSVLESIDSMFNYFEGRKKDKFYFFKKLESQNELFTIIAIDNCKLKKEIENKLKNKIKFATIIHPDVSFFNKQEVGEGTIIYPGLIVVGRFKLGKHVILKQKCSLGNNIEIGDYSFISFNSNIDSNVMVKEGSYIEANTTILANSNIDKNTYIKEGSILY” the protein production was “failed”. With “MKDIYELLNDIDIDEKELEEIEASEIEKEKVKRNVKQSIRTKKKMKSWKKGVAAASILVGLSVTTLGIGFPTYAGGLPIVGDIFRFLDNGRTGLYENYKEFSTELNMTRESNGVKVTINDVISDGRTLSITYSLESEQDLGDDPIILGGLDIMDAHGSSGSGKMTKVTEKKYVGMVTTTHHDSNKKDKVNFRWNIEGIEIPDRKKSIQGHWNFALTVKSMDSKERTIGGSSEKEGIKANMEKVAMSPVSFILYYNQEVSKGARKEWDSVDVELTVKDDLGNDYSGEGNGGSGNDPYNIRWSATFQKLNENATKLIVTPRVHLRVHTPENHGGVEYVNGKEKKIEVPNKEAKKKDIVLDDIVIDLKK” the protein production was “not failed”. In the case of “MKDNTPASSPERWIIYGANGYTGELIAREAVKRGHHPILAGRSLEKVQSLAAELGLQSLAFSLEDKSSAVQHISGSSLVLNCAGPFSSTAKPMMKACLEAGAHYLDITGEISVFEFAQTLQSQAKEASVVLCSGVGFDVIPTDCIAATLKAALPDATHLSLGFDSRSGFSPGTAKTSVEGLAQGGKVRLNGKITTVPLAYKVHNIDFGDGEKLAMTIPWGDVSTAYYTTGIENIDVFIPGSPNMIKNAKRANWVRPLLGITWVQNLIKSRIERTVKGPNEEQRNQLPTYVWGKASNKLGQSKTARVQTANGYSLTVTGSLAIVEHLLHTKPEAGVYTPSKLMGSNFVSQLPGSSGITIEE”, the protein production is reported as “failed”. With “MKDSMFLYEFDLFRYSKDLTALSFLLLIGSSLTVHWVSLSMSSSRDLLHYLVLPLILVVILHEGLHALTAKLSGAKTSLGVLTKYGIILAVYVGINTPLPVKKIRYITIAPIIISIVAFFFSWVTYSPFWAILYIFNTTGIVGDLIVFLVLSKMPSDAIVVDEGTIMKSNAEFPEPYPSWFSKLIIGLAVLVFLYILTNIRIEFEVVGTLPNQTMPVNSHFE” the protein production was “failed”. In the case of “MKEDAGNPLHLTSLNHVSVLCRSVDESMNFYQKVLGFIPIRRPESLNFEGAWLFGHGIGIHLLCAPEPEKLPKKTAINPKDNHISFQCESMGVVEKKLEEMGIDYVRALVEEGGIQVDQLFFHDPDGFMIEICNCDSLPVVPLVGEMARSCSRVKLHQMVQPQPQTQIHQVVYP”, the protein production is reported as “failed”. With “MKEELFKEKSRYITGFVLIIVADLILYADNLLLFWAVLGGIYAVGFSEALRLFQVKASFSLYLILVLSWVAAYFNGRPIECALISAMVMASVIAYQKAHHSEAILPFLYPGVGFFALFGVYKDFGAVAIIWLLVVVVASDVGAFFGGKLLGKTPFTPTSPNKTLEGALIGVVLASVLGSFVGMGKLSGGFFMALFFSFLIALVAVFGDLYESYLKRKVGIKDSGKILPGHGGVLDRLDSMLFGALGLHALLYFLEIWKETAVFLGD” the protein production was “failed”. With “MKEIDELTIKEYGVDSRILMERAGISVVLAMEEELGNLSDYRFLVLCGGGNNGGDGFVVARNLLGVVKDVLVVFLGKKKTPDCEYNYGLYKKFGGKVVEQFEPSILNEFDVVVDAIFGTGLRGEITGEYAEIINLVNKSGKVVVSVDVPSGIDSNTGKVLRTAVKADLTVTFGVPKIGHILFPGRDLTGKLKVANIGHPVHLINSINRYVITREMVRSLLPERPRDSHKGTYGKVLIIAGSRLYSGAPVLSGMGSLKVGTGLVKLAVPFPQNLIATSRFPELISVPIDTEKGFFSLQNLQECLELSKDVDVVAIGPGLGNNEHVREFVNEFLKTLEKPAVIDADAINVLDTSVLKERKSPAVLTPHPGEMARLVKKTVGDVKYNYELAEEFAKENDCVLVLKSATTIVTDGEKTLFNITGNTGLSKGGSGDVLTGMIAGFIAQGLSPLEASTVSVYLHGFAAELFEQDERGLTASELLRLIPEAIRRLKE” the protein production was “not failed”. In the case of “MKEIQYEIVKEIAVLSASDSGYTKEINLISWNGREPKYDIRSFSPNREKCGKGITLNADEAAALLEALQKEVNSGD”, the protein production is reported as “failed”. With “MKEKVQSPELRFDGFTDGWEQRKFADFIDVKSGKDYKHLNSGSIPVYGTGGYMLSVDRALSDIDAIGFGRKGTIDKPYLLKAPFWTVDTFFYAVPKQNIDLQFSLSIF” the protein production was “failed”. For “MKELSKSDRTRQFIIESTAPVFNVKGLAGTSLTDLTEATNLTKGSIYGNFENKEAVAIAAFDYNWGHVKSVLTAKVQACNTYKEMLLVYSSMYNDADGSLFPVGGCPLLNTTIEADDTHDALRKKAGEAILSWKKNLVTIIKKGIQAKEFRPDTDVTKIAFSMIALVEGAILIHRATKNRAYSDYVFESLEDLIAGIEVKKK”, the protein production was “not failed”. For “MKENLELVEFFEYLLILVLNMLVASIVFLQEYCIGSIRLSHYRRIFATVMAIRSLVSIWIIYPMTATLLGTLNILVIQSIILLFLWGLMQCVKKYRGKWYITMIALIIYGLSCYFHIMYAKTV”, the protein production was “failed”. In the case of “MKEQYRNQNTFLSMIDMDLIRRGLLHAIQDLVFIVKVMDDETFTYIYVNKIGMDYAKLSEECYGKTFSEVLPKDTAEILQVQYAKVASEVKAHTFCDVVSLPTGNLHYESSLNPVFDEEGVCQFIICITRDIT”, the protein production is reported as “failed”. For “MKFAFVFPGQGSQSVGMLNAFADVAVVRETLDEASDALGQDIGKLIADGPADELNLTTNTQPVMLTAAYACYRAWQQAGGAQPSIVAGHSLGEYTALVAAGAIAFRDALPLVRFRAQAMQTAVPVGVGGMAAILGLDDDTVRAVCAEASATGVVEAVNFNAPAQVVIAGTKAGIEKACEIAKEKGAKRALPLPVSAPFHSSLLKPASDKLREYLAGVDVKAPKISVVNNIDVAVVSDPAAIKDALVRQAAGPVRWVECVQHIAREGVTHVIECGPGKVLAGLTKRIDGNLVGASVFDPASLDEALKLAAA”, the protein production was “not failed”. In the case of “MKFFQRTVLEPAYQGAQLHPGKLSGIYQNEILCNSLFHHYKQRTLKLGRELESRLKHLYHLVRMALPGTVSANTTRRSPANSIHTEVQIDSRTDTHLPQVSDDEDLRWIRTGLPHQYHAYLAIDRLKSSHHLAGQSVLCIGGRAALYPNYHQLIEAAGGHFMVFRGGAQDNSECLLALLARVDSIICPVDCINHEDFFTVRRYCQRTGKNCVMLERSDLVTFGKAVETLARGDCHNSETLEHHHHHH”, the protein production is reported as “failed”. For “MKFGRRATSRTEPGKRCVARPRYNSAMSEFTDSAAGRSATSPADASSSALRRLRAIQPLPDQLISQIAAGEVVERPASVVKELVENALDAGAGTLRILLDEGGVKRISITDDGCGIPAAELPLALMRHATSKIRSLAELEAVATLGFRGEALASIASVAEMFITSRTEDDAHATRIDAQTGVLAPAAGTRGTTIEVRELYFSTPARRKFLKSEQTEFGHCLEMIRRAALARPDVAISVLHNGRAVEHWNASEPAARVAKILGDGFATAHLPLDERAGPLAVYGCAGLPTASRGRADQQYFFVNGRFVRDKLLTHAVRAAYEDVLHGDRYPSYVLFLDLPPEAVDVNVHPSKIEVRFRDSRSIHQFVFHAVQRALARHAGASPETTAGGHAAHLSPVEPAQAGSPAAPSASFVRPDAAAAGAGVGHPAPGNTWLRQSRMTQGTLPVAQPLALYDALFGRKDSGAGTPHGTTGVLEARDAPDAPGAPLFASAPGGAAMPAFSAAGASDPAMHDEQPLGFAVGQIHGIYVLAQNARGLVIVDMHAAHERILYEQFKRALADRTVAVQTLLIPVSMTATPVEVGTAEEERETLDALGFDLAVLSPTTLAIRAVPALLKDADLQALARAVLADLHAFGGSRVLTERQHELLGTLACHHAVRANRRLTLDEMNALLRQMEATERADQCNHGRPTWYQLTLGDLDKLFMRGQ”, the protein production was “failed”. With “MKFILRLGLALLTGFVSVSTASAQAYGTADTNAPELRVPKSVQPAFDYWMRDTWATLGPDGYYYITGTTSTPDRHFPGQRHCWDWNDGLYLWRSKDLKIWEAMGRIWSMEKDGTWQKDPKVYKEGEKYAKKSINNDPMDNRFHAVWAPEMHYIKSAKNWFIVACMNQSAGGRGSFILRSTTGKPEGPYENIEGNEDKAIFPNIDGSLFEDTDGTVYFVGHNHYIARMKPDMSGLAEEIKTLKESKYSPEPYVEGAFIFKYDGKYHLVQAIWAHRTVKGDTYVEKEGLTNKKTRYSYDCIIATADNVYGPYGKRYNAITGGGHNNLFQDKDGNWWATMFFNPRGAQAAEYKVTCRPGLIPMLYENGKFKPNHNYQAK” the protein production was “failed”. In the case of “MKFIRRCMMETRYTVRQAVEMTGVKSYVLRYWEEELELQIHRNELGHRYYTGYDIQLFLNIKELKKRGLQLRAIKNLIPQITASMTGFGESASTLLEGEVIDHAEVKTDRDLKEKISKKDEGKNDKILEFQAILERLITQELKAQNEDEERCRSLDYAIRRQQLARKEAAAAAEKKSGRRRRDK”, the protein production is reported as “not failed”. In the case of “MKFKRLRTSENKLYYKAMELYKISFPFHEQRKSSLQEEILKNKEYQFNLIYDKNQFVGIILCWETDDFIYVEHFCIFPEMRNNRYGQRALELLNKKGKTIILEIDLPIDEISIYRKAFYERVKYKTNNYEHIHPPYHEKFNGHNLIVMSYPEKLSKMEYDKFNHYLRNNVMSF”, the protein production is reported as “failed”. With “MKFLTTNFLKCSVKACDTSNDNFPLQYDGSKCQLVQDESIEFNPEFLLNIVDRVDWPAVLTVAAELGNNALPPTKPSFPSSIQELTDDDMAILNDLHTLLLQTSIAEGEMKCRNCGHIYYIKNGIPNLLLPPHLV” the protein production was “failed”. In the case of “MKFQLKRLAKKRPDRVQIKIQDGQFEIIGMGVWHSYWRDPYHLLLTIPWTGFLLLICLSYLAINLIFALAYWLGGDCIANAKPGNFLDLFFFSVQTLASIGYGAMYPKTLYANTVVTIEAMIGLVGIAVMTGLAFARFSRPSARVIFSRVAVITPYNDVPTLMFRTANQRRNLILEAQMRVYLMRDEITAEGGFIRRFHDLKLLRNQTPSFTLSWLALHPIDEFSPLYGMSAESLIQTNTNIIISVSGIDETVAQVVHARYTYTASNILWNSRFVDIFHHTSDGHRYIDYKYFHDVLPLDKIG”, the protein production is reported as “failed”. In the case of “MKFRGNFVCQPRAGPAESRPTRPFTPRPSATGSLFMSNQHFVSPDLIRQGFSRAMSDMYREEVPLYGALMELVAEVNAQVLERQPALARHLQSSGELQRLDLERHGAIRVGSAAELATLARLFAVMGMQPVGYYDLTPAGVPVHSTAFRAVHEAALQVSPFRVFTSLLRLELIDNPELRSFAEQVLARRQIFTPQVLELIQQAEAAGGLDAEDAERFIRQALETFRWHHHATVTAAQYASLSAQHRLIADVVAFKGPHINHLTPRTLDIDEVQRLMPARGITPKAVIEGPPRRECPILLRQTSFKALEESVAFTDQAQSQGSHSARFGEIEQRGAALTPKGRELYDRLLNAARDALGDFPNEANAQRYNQLMQEHFREFPDSHPAMREQGLAYFRYFVSETGLAARNQPQRPTTLAALLAAGHLSAEPLVYEDFLPVSAAGIFQSNLGDDSQSHYAGQSNRQAFEAALGRPTLDELQLYAQTQQRSLEHCAATLGLPAL”, the protein production is reported as “failed”. In the case of “MKFSIIVPSYNSEKYIAELLNSLQNQSYDKKDFEVILVDDCSSDNTLNVVEAYKNKLNLIIKQLDTNSGGPGKPRNTALQLAQGEYVFFVDSDDYINKDTLKDVSKFVDQNHADVVLVKMEGVNGRGVPKSMFKETSDAVTLANSRIIYTLSPTKFYRTSLLRDHAIEFPEDLRSAEDQLFTMKAYVNAKRIAVLADKPYYYATKREGEHMSSAYVSPEDFYKVMSLITEEILNSPLENKNEVLGYFIDRHFSFSRTNNFSLKIADDKKEAWMDALGDFIQKVPTVVDELVNDSFKPLLHYARLKDMKHYQMVEESYKNGKFHSYSAQEGTLKIQFDEGEPYFVFKKLVKPDIRMSHFEFNDQGFELELEFISSIINPNHVASMIQLKLLSRNKKEFIYIPLTMNDQTRFKFKADLNDLMPYLIKEKVWDAHLEMRVDNMTIEKRIGNKRVKYPYSKETSTITQYNNQYYRFTPYFTKDFDNLSFYITSNKLNEMLAVEIKDKQTIQLRSLEFNYILSEGMTAVILPHMFTYGYLTSVTTKDTLTYHLSVGEKVKDKDLKKNFKIETPHLVLKYLEHHHHHH”, the protein production is reported as “not failed”.
